Measured values published in patent US20240075137A1 (COMPUGEN, published 2024).
Read-outs that look alike come from different tables or passages of the source.

Key:
[1] = target: T1, cynomolgus PVRIG on cells (cynomolgus, UniProt A0A2K5WVV8 41-322); test: flow cytometry titration, expi cPVRIG cells
T1 construct: whole, on cells; also called cPVRIG; expi cPVRIG cells
T1 sequence: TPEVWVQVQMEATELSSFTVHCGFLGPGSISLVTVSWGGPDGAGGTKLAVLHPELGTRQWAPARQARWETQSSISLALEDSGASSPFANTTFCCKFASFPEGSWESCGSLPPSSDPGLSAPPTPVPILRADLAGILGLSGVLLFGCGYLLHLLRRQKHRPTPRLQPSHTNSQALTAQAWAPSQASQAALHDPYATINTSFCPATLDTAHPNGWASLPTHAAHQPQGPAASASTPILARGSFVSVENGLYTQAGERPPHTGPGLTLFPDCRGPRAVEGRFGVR

human PVRIG on cells [2] = target: T2, human PVRIG on cells (human, UniProt Q6DKI7 1-326); test: FACS on Jurkat cells pre-incubated with CHA.7.518.1 (unconjugated)
T2 construct: whole, on cells; over-expressed on HEK cells or endogenous on Jurkat and CD8 T cells; also called hPVRIG; HEK hPVRIG cells
T2 sequence (looked up): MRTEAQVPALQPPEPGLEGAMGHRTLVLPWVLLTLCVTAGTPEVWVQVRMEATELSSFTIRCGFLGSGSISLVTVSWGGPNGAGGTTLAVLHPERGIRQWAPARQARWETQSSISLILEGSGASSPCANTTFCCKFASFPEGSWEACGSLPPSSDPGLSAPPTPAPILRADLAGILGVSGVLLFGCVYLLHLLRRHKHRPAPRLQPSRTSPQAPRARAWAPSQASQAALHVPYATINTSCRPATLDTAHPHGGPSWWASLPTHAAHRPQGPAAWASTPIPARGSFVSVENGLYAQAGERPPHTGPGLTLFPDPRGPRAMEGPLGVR

human PVRIG on cells [3] = target: T2, human PVRIG on cells; test: FACS on Jurkat cells pre-incubated with CHA.7.538.1.2 (unconjugated)
PVRIG Fc = target: T3, PVRIG Fc (UniProt Q6DKI7 41-171, limits assumed, biotinylated (Example 5)); test: FACS competition: biotinylated PVRIG Fc (33 nM) binding to HEK cells with endogenous PVRL2
T3 construct: also called biotinylated PVRIG Fc protein; PVRIG-Fc-fusion protein
T3 sequence (looked up): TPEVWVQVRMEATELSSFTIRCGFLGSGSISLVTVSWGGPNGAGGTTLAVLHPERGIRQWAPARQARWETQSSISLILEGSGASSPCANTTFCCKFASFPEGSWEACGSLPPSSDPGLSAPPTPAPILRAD

human PVRIG on cells [4] = target: T2, human PVRIG on cells; test: FACS competition: PVRL2 mFc binding to HEK hPVRIG cells
human PVRIG on cells [5] = target: T2, human PVRIG on cells; test: FACS on Jurkat cells pre-incubated with Isotype (unconjugated)
human PVRIG on cells [6] = target: T2, human PVRIG on cells; test: flow cytometry titration, Jurkat cells
human PVRIG on cells [7] = target: T2, human PVRIG on cells; test: flow cytometry titration, HEK hPVRIG cells
mPVRL2 HIS = target: T4, mPVRL2 HIS (mouse, UniProt P32507 32-351, limits assumed); test: ELISA: soluble receptor Fc titrated on immobilized mPVRL2 HIS
T4 construct: also called mPVRL2 protein; Soluble PVRL2 HIS protein
T4 sequence (looked up): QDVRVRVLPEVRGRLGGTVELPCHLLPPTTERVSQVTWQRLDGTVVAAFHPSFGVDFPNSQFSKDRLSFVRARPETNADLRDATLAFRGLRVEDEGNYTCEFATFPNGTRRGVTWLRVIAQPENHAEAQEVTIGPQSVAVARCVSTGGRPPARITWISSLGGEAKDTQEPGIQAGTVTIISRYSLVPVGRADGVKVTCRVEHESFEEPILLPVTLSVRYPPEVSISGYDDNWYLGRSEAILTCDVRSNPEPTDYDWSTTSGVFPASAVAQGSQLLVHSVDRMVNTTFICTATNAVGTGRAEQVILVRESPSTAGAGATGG

human TIGIT on cells [8] = target: T5, human TIGIT on cells (human, UniProt Q495A1 22-141); test: FACS blocking of human PVR-m2aFc binding to human TIGIT OE Expi293 cells; binding site concentration; n=2
T5 construct: also called Expi293 human TIGIT over-expressing cells
T5 sequence: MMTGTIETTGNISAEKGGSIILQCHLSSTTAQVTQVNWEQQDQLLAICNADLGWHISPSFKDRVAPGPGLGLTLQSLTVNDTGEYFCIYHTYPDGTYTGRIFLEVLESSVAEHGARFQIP

human TIGIT on cells [9] = target: T5, human TIGIT on cells; test: FACS titration on human TIGIT OE Expi293 cells, binding site concentration; ± 95% CI; 'Fit: Excellent'
human TIGIT on cells [10] = target: T5, human TIGIT on cells; test: FACS titration of AF647-labelled mAb on human effector memory CD8+ T cells, Donor 322
Cyno TIGIT-His = target: T6, Cyno TIGIT-His; test: SPR (ProteOn), Cyno TIGIT-His
T6 construct: also called cyno TIGIT monomer (prepared in-house); C-terminal HIS-tagged cyno TIGIT ECD recombinant protein

cyno TIGIT on cells = target: T7, cyno TIGIT on cells (cynomolgus macaque); test: FACS titration on cyno TIGIT OE Expi293 cells, binding site concentration; ± 95% CI; 'Fit: Good/Excellent'
T7 construct: whole, on cells; also called Expi293 cyno TIGIT over-expressing cells

Mouse TIGIT-His = target: T8, Mouse TIGIT-His (mouse, UniProt P86176); test: SPR (ProteOn), mAb captured, mouse TIGIT monomer injected; BM29 as hIgG4
T8 construct: also called mouse TIGIT monomer (prepared in-house)
T8 sequence (soluble monomer with His tag, looked up): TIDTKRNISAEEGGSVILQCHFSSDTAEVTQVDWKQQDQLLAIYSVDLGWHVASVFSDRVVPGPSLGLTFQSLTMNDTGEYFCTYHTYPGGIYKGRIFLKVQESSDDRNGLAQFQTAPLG

human TIGIT on cells [11] = target: T5, human TIGIT on cells; test: FACS titration of AF647-labelled mAb on human effector memory CD8+ T cells, Donor 334
[12] = target: T9, human TIGIT ECD with C-terminal polyhistidine tag (human, UniProt Q495A1 22-141); test: SPR (ProteOn), mAb captured, human TIGIT injected; BM29 as hIgG4
T9 construct: in-house or Sino Biological; also called hTIGIT-HIS; human TIGIT-HIS
T9 sequence: T5 sequence

[13] = target: T9, human TIGIT ECD with C-terminal …; test: SPR (ProteOn), Human TIGIT-His
human TIGIT on cells [14] = target: T5, human TIGIT on cells; test: FACS titration of AF647-labelled mAb on human effector memory CD8+ T cells, Donor 321
human TIGIT on cells [15] = target: T5, human TIGIT on cells; test: FACS blocking of human PVR-m2aFc binding to human TIGIT OE Expi293 cells; binding site concentration; n=1
human PVRIG on cells [16] = target: T2, human PVRIG on cells; test: flow cytometry, HEK hPVRIG cells
human PVRIG on cells [17] = target: T2, human PVRIG on cells; test: FACS, HEK hPVRIG cells (HEK OE)
[18] = target: T10, PVRIG (FACS-based competition assay of FIGS. 7 and 15) (Homo sapiens, UniProt Q6DKI7); test: FACS-based competition assay of PVRIG blocking; format and competitor not given
T10 construct: made because the format of the assay is only described in U.S. Ser. No. 15/048,967; also called human PVRIG
T10 sequence (receptor, looked up): T3 sequence (looked up)

human PVRIG on cells [19] = target: T2, human PVRIG on cells; test: FACS on HEK hPVRIG cells; column head 'Kd', unit nM from legend paragraph 75
[20] = target: T10, PVRIG (FACS-based competition assay of …); test: FACS-based competition assay of PVRIG blocking; format and competitor not given; remark: listed apart in the source
human PVRIG on cells [21] = target: T2, human PVRIG on cells; test: flow cytometry, Jurkat cells
human PVRIG on cells [22] = target: T2, human PVRIG on cells; test: FACS on Jurkat cells; column head 'Kd', unit nM from legend paragraph 75

T6 sequence (ECD with C-terminal His tag, as listed by the source): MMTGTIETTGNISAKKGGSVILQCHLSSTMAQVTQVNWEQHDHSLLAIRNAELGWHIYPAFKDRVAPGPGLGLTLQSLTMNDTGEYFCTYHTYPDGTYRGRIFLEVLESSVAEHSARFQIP

B1: CHA.7.538.1.2.H4(S241P) (antibody, human IgG4 S228P, kappa, V domains shown)
VH: QVQLVQSGAEVKKPGASVKVSCKASGYAFTNYLIEWVRQAPGQGLEWIGVINPGSGGIYYAQKFQGRVTMTADTSTSTVYMELSSLRSEDTAVYYCARSETHDTWFAYWGQGTLVTVSS
VL: DIQMTQSPSSLSASVGDRVTITCKASQSVRIAVAWFQQKPGKAPKALIYLASTRHTGVPSRFSGSGSGTDFTLTISSVQPEDFATYYCLQHWNYPYTFGQGTKLEIKR
notes: humanized, human IgG4 with S241P
Question: Which results are given for B1?
Answer: Kd [1]: 580 pM; % binding relative to maximum signal (human PVRIG on cells [2]): 32%; % binding relative to maximum signal (human PVRIG on cells [3]): 7%; IC50 (PVRIG Fc): 16100 pM; IC50 (human PVRIG on cells [4]): 2530 pM; % binding relative to maximum signal (human PVRIG on cells [5]): 100%; Kd (human PVRIG on cells [6]): 590 pM; Kd (human PVRIG on cells [7]): 860 pM

B2: TIGIT Fc (Fc fusion, UniProt P86176 29-148, looked up)
fusion chain: T8 sequence (soluble monomer with His tag, looked up)
notes: receptor part of an Fc fusion; Soluble receptor Fc tested on immobilized mPVRL2 HIS
Question: Does B2 bind (mPVRL2 HIS)?
Answer: Result: no binding (tested: about 200 nM)

B3: BM29 hIgG4 (antibody, V domains shown)
VH: QVHLQESGPGLVKPSETLSLTCTVSGGSVSSGIYYWSWIRQPPGKGLEWIGYIYYSGSTNYNPSLKSRVTISVDTSKNQFSLKLSSVTAADTAVYYCARDYYVSGNYYNVDYYFFGVDVWGQGTTVTVSS
VL: EIVLTQSPATLSLSPGERATLSCRASQSVSSYLAWYQQKPGQAPRLLIYDASNRATGIPARFSGSGSGTDFTLTISSLEPEDFAVYYCQQRSNWPPLFTFGPGTKVDIKR
notes: benchmark anti-human TIGIT antibody, human IgG4 with S241P; also called BM29-H4; US2016/0176963A1 Clone 22G2 as hIgG4
Question: B3 was tested. Which IC50 (human TIGIT on cells [8]) did it give?
Answer: The IC50 was 500 pM.

Question: And the Kd (human TIGIT on cells [9])?
Answer: The Kd was 1530 pM.

Question: And the Kd (human TIGIT on cells [10])?
Answer: Its Kd is 910 pM.

Question: And the Kd (Cyno TIGIT-His)?
Answer: The Kd was 1540 pM.

Question: And the Kd (cyno TIGIT on cells)?
Answer: The Kd was 1670 pM.

Question: Does B3 bind (Mouse TIGIT-His)?
Answer: Result: no binding (tested: 92.9 nM mouse TIGIT)

Question: And the Kd (human TIGIT on cells [11])?
Answer: The Kd was 590 pM.

Question: And the Kd [12]?
Answer: Its Kd is 15 pM.

Question: And the Kd [13]?
Answer: Its Kd is 11 pM.

Question: And the Kd (human TIGIT on cells [14])?
Answer: Its Kd is 880 pM.

Question: And the IC50 (human TIGIT on cells [15])?
Answer: The IC50 was 1000 pM.

B4: CHA.7.518 (antibody, V domains shown)
VH: EVQLQQSGPELVKPGASVKISCKASGYTFTDYNINWVKQSHGKSLEWIGYIYPYIGGSGYNQKFKSKATLSADNPSSTAYMELRSLTSEDSAVYYCAREDKTARNAMDYWGQGTPVTVSS
VL: DIQMTQSPASLSVSVGETVTIICRVSENIYSNLAWYQQKQGKSPQLLVYEATNLAEGVPSRFSGSGSGTQYSLKINSLQSEDFGSYYCQHFWGTPYTFGGGTKLEIK
Question: B4 was tested. Which “fold higher affinity than CPA.7.021” value (human PVRIG on cells [16]) did it give?
Answer: Its value is about 8 fold.

Question: And the EC50 (human PVRIG on cells [17])?
Answer: The EC50 was 360 pM.

Question: What about the IC50 [18] of the same binder?
Answer: Its IC50 is 23200 pM.

Question: And the Kd (human PVRIG on cells [19])?
Answer: Its Kd is 360 pM.

Question: What about the IC50 [20] of the same binder?
Answer: Its IC50 is 23200 pM.

Question: And the “fold higher affinity than CPA.7.021” value (human PVRIG on cells [21])?
Answer: Its value is about 13 fold.

Question: And the Kd (human PVRIG on cells [22])?
Answer: The Kd was 240 pM.
